Source: the DeepSol protein solubility set

experiment: soluble on expression in E. coli; label from the status in PepcDB or PDB records

Question: For “GPGSMEFSGSTLSVVEVEHTVRQLRPFPLQDIGTAEWKNQREAVERLNMCTHSNAVLKKDDTVKAFLIEHEKLPVLLHELLVMEVWRQRVLPLIKDQIVQHPAGIYMYVQYEMVLLNLFECIAFHEEVVVALDEDVLELIDYCWRQASRLFAEQNVNEVQSKPTARDVSNAANTVEEVLKSADRQMLHAIYQRAMASLSILWFIIDRLNQLPLAASNSVLVKNDLILGLTEVMLLQPWLRRSSEATQKFFNGEFKDIPRADVLLVCTPEAHTWFSLHKLLCDPECRRRYSYTQSKKELILRIRHFLNDTLVDQIPALASLQRALEELSFLQPPSGTEEKFKSTLTIEQVPRIMTLVEVERKGSWDDLASTLRAMLQDPSVRNEDAMRLSRIFDEMFSDQLK”, which “soluble on expression in E. coli” value is on record?
Answer: not soluble

Question: With “MGHHHHHHSHMSHIFDASVLAPHIPSNLPDNFKVRPLAKDDFSKGYVDLLSQLTSVGNLDQEAFEKRFEAMRTSVPNYHIVVIEDSNSQKVVASASLVVEMKFIHGAGSRGRVEDVVVDTEMRRQKLGAVLLKTLVSLGKSLGVYKISLECVPELLPFYSQFGFQDDCNFMTQRF” as the sequence, how does the “soluble on expression in E. coli” value read?
Answer: not soluble

Question: With “MGSDKIHHHHHHMALLFSGGTMSQVQSGILPEHCRAAIWIEANVKGEVDALRAASKTFADKLATFEAKFPDAHLGAVVAFGNNTWRALSGGVGAEELKDFPGYGKGLAPTTQFDVLIHILSLRHDVNFSVAQAAMEAFGDCIEVKEEIHGFRWVEERDLSGFVDGTENPAGEETRREVAVIKDGVDAGGSYVFVQRWEHNLKQLNRMSVHDQEMVIGRTKEANEEIDGDERPETSHLTRVDLKEDGKGLKIVRQSLPYGTASGTHGLYFCAYCARLHNIEQQLLSMFGDTDGKRDAMLRFTKPVTGGYYFAPSLDKLMAL” as the sequence, how does the “soluble on expression in E. coli” value read?
Answer: not soluble

Question: For “MGSDKIHHHHHHELGMQDNLNDSKILLSSDEYISIAYDNPGIITSEEAKQLVLDFNPTGLQTRNNNVKIMAISTYNVSSSSGLKTRVGSTNLTTIPVYKIEFLSDEGKGVAYVPADERFAKIMAYLPKTDLKDSVKYVDSKSMLYLSELSLLEDAKYYEKVKSELRAKTLAKIAKTLNVKAVRYDEIQDIIIVKDEILSRSEPTFPIGNPIGFAGLYCSSTEWNQDAPYNDLLQKENCDLYDTGSPTYEAVPAGCAVISIAQIMASLEPDLTVDGLKIDWNILKAQKQIIAPSSWQTPSSETTREMVAKLIKYIYIATNTQPVRNSSGYVTGSGTYSSDTSSFFYRFFSTSGLKNGWDGNAAFQSLQLAKLVWIAATSNRGGSHAFILDGFAYWRPQTRYLVKNFDFYFHANMGWGGYYDGFYLVNKDLSITFDTSNGSYDRNFSMIYNIINK”, which “soluble on expression in E. coli” value is on record?
Answer: not soluble

Question: With “MTKQLVLFCDFDGTITENDNIIAIMKQFAPPEWEALKDDILAERISVQEGVGKMFSLLPSSLKGEIIDFLRRTTRLRAGFREFVAFTKERGIPLYIVSGGIDFFVYPLLEGLIEPERIFCNGSDFSGETIRITWPHACDGECQNGCGCCKPSLLRKLARPDGYHVVIGDSITDLAVAKQADYVMARDFLLQKCQELGLPHAPFATFFDVIDALQRMEVIV” as the sequence, how does the “soluble on expression in E. coli” value read?
Answer: soluble

Question: For “MSLAATIREVAALAGVAPGTVSNVLTGKKLVAEPLRKAVLDAIAQLDYRPNHLASSLRFGRTKSIGIVVPDMTNPFFSGLVRELELKAAKSGFQILLMSSYEEAAEERERIRALVSRQVDGLIISPSRDSIETSPHSAISGIPTVLVDRAFAVEGFDTVSADNEQATLMGARHLIELGHKRITFLATAPGLANMEERVSGYRKAMQDAGVSDANVVYGGLSIESCRSAIEQELRRAGRPTAVFASAYVATLGAAKAIRALDLAFPQDVSLLGFDDSDWMTVLRPYVSTIEQPLDELGHACWELLQRRMKKMDVPPVHRRIACTLRARESTREGHHHHHH”, which “soluble on expression in E. coli” value is on record?
Answer: soluble

Question: With “MLTHQFNPYSACTSILVGKNASADGSTMIGRNEDSRAAWAKKMIIHAHREFEEPQTFKSQDQTHPFTMTLPKIRAKYTATPEWTAEYGLFEEDGINEYGVAMSATESAYCNTRVLAADPYVKDGIGEEAMVTVTLPYIHSAREGVERLGHIIEEHGTYETNGILFSDVNEVWYMETGAGHYWVAQRIPDDAYAVVANQLAIQEIDFSDHDNYLYAKDIRNFVLDNQLASMDNGLNFREVFGTADLSDRYYNTPRVWYGQRCFTPSVTQTPESFDLPFIQRADGLIHIDQVQGYLASHYQGTPFDPVGQGTATEKHQYRPISLAKTQESHVLQLRPDLPVTLSGIHWLAMGVAAESVYVPFYAGATTTPAAYQVATEKYDATSAYWIFKHVGILVDAHYHELHGELQTVQKELAIQLGHHIIVTDQQVAALTGDELAMALTKANQKAVDQALNTMQALAADLITKSTDMSPLNYDTDLNLLEHHHHHH” as the sequence, how does the “soluble on expression in E. coli” value read?
Answer: not soluble

Question: With “MSLGTIIIVDDNKGVLTAVQLLLKNHFSKVITLSSPVSLSTVLREENPEVVLLDMNFTSGINNGNEGLFWLHEIKRQYRDLPVVLFTAYADIDLAVRGIKEGASDFVVKPWDNQKLLETLLNAASQAKDGKKKNRKKESSPVSAMYWGESSAMQQLRTLIEKVATTNANILITGENGTGKEMLAREIHALSPRSAESMISVDMGAITESLFESELFGHVKGSFTDAHADRTGKFEAADRSSLFLDEIGNLPFHLQAKLLTAIQQRSIVRVGSNQSIPVDIRLICATNRNLQEMVDKGLFREDLLYRINTIHVEIPPLRKRKEDIVPLAERFIARFCKQYDKASISLSPAACEKLTAHAWYGNIRELEHSIEKAVIISDGETIPAEMFQLVQKTENPETETSTLEDMEKAMIRKALDKCGGNLSAVAAQLGITRQTLYNKMKKFGLEGHHHHHH” as the sequence, how does the “soluble on expression in E. coli” value read?
Answer: soluble

Question: For “KRKERLSARLGDILSQLYLSSATLKRFEQDGRPAEDLALVHWGLQDSLKQAEIAIDEFLANFPNKVIGRTLRVLIMPFGRVRKAPSDKLDSKVARILQTPSATRSRIGRGQYLEPTEHNPAGKIELALSVILQAEPVFDKVCKAQGKRRPFLRLDMIAQEGLEQGVITQEEAELLREAEQHRLDTINVDDFEPELLAAKPLYPQMDSVA”, which “soluble on expression in E. coli” value is on record?
Answer: not soluble

Question: Which “soluble on expression in E. coli” value does the source give for “MSLKLFGTDGVRGKAGEFLDSFLAMRLAMAAGIYFKDKSITNNILVGKDTRRSGYMIENAIVSGLTSIGYNVIQIGPMPTPAIAFLTEDMRCDAGIMISASHNPYYDNGIKFFDAHGNKLSEDIEKKIEEIYFDDKLIQASKVDMEKIGQAKRIDDVIGRYIVSIKNSFPKDLTLKSLRVVLDVAHGAAYKVAPTVFKELGAEVIVMSDKPNGLNINENCGALHPANLAAEVKRLRADVGFAFDGDADRLVVVDEKGEVANGDSLLGVLALYLKEQGKLQSSVVATIMSNGALKEFLNKHGIELDTCNVGDKYVLEKLKANGGNFGGEQSGHIIFSDYAKTGDGLIAALQFSALMLSKKKSASSILGQVKPYPQLLTNLKIAEKKDLDKIKGLKELKKDLENKNINTLFRYSGTENLIRLLLEARDIKLLEKEMKNVVEFFKKALNGEGHHHHHH” here?
Answer: not soluble

Question: For “MTQTVKLDILSDPICPWCYIGKTQLDKALAAIPDHPFVIEWHPFQLNPDMAPEGMDRREYLERKFGGKEGAVRAYAPVVEHAEKAGLAIDFEAMQRTPNTLDAHRLIHWAGVEGKQTEAVDALFAAYFTEGRDIGDAEVLADIADSIGMDAAVVLKLLKSDADRDDIAKRDSHSREMGVSSVPTFIVANQHAVPGAQPPELWEQVIREIMSQIETTSA”, which “soluble on expression in E. coli” value is on record?
Answer: not soluble

Question: Which “soluble on expression in E. coli” value does the source give for “MGSDKIHHHHHHMHSSEIRYFLVVATTGSLSAASQHLFVAVSAISRQIQRLEERIGVPLFERHARGMVLNDAGRILENHVRKSMMDMDAAVAEIQGLKASRRALLRIGCTEGMAFDLLPTLFARFRQHDPDTTFALKVDSAMQVSQMIRNGEVDIALQFALAPEQGVNVELALPAPLMLLMSDEHPLAQQSIQLADLHPFPLALPESSTTLRQLFDLSCRMNGTFLEPTLCCNNFTTLYYYAMSTPGAVTACSFYSVMYKCLQEPMRLKPLNIKQLDQRSLQIQTLAGKAHAPQQQAFLDFMMAELRQGEAYYLSHMATDMV” here?
Answer: not soluble

Question: With “MKTGVTGPYTFGVGLITYLCSKEIYVMEHEYYSGLSLGIMAIIAVKKLGPVIAKWADGEIDKIESEWKEGREAELKVLSDAIEAEKKEQWRADGALLLMEAKKENIALQLEAAFRERAMNVYSEVNRPLDYQVECRHVERRLSQKHMVNWITTNVLASISPQQEKETLNKCIADLSALALRVKSALEHHHHHH” as the sequence, how does the “soluble on expression in E. coli” value read?
Answer: not soluble

Question: Which “soluble on expression in E. coli” value does the source give for “MVKFMAIGTPLLKGSIKFLLLGSGELGKEVVIEAQRLGIECIAVDRYQNAPAMQVAHKSYVIDMKDYDALMAIIEREEPDYIVPEIEAINTDALIDAEKMGYTVIPTAEATKITMNRELIRRLAAEKLGLKTAKYEFADSLEELRDAVEKLGLPCVVKPIMSSSGKGQSVVRSEEDIEKAWKIAKEGARGIGNRVIVEEFINFDYEITLLTARTAEGTKFCEPIGHVQIDGDYHESWQPHNMSAELKEQAQDIAKKVTDALGGYGIFGVELFVKGDEVIFSEVSPRPHDTGMVTMITQEMSEFEIHVRAILGLPVSTKLIHPGASHVIKAEINKYAPKYHIEDALKVPNTKLRLFGKPNAKVGRRMGVALAYADSVEKARELAEKCAHAVRIE” here?
Answer: soluble

Question: Which “soluble on expression in E. coli” value does the source give for “MSEKVVFSQLSRKFIDENDATPAEAQQVVYYSLAIGHHLGVIDCLEAALTCPWDEYLAWIATLEAGSEARRKMEGVPKYGEIVIDINHVPMLANAFDKARAAQTSQQKEWSTMLLSMLHDIHQENAIYLMVRRLRD” here?
Answer: not soluble

Question: For “MNLIFPLFFFALLVGSNAQFQQFCNYCGFIEVPKTWPVAQDSLRSACETLGMATTACKGIINSADLNSSYGKMYPYII”, which “soluble on expression in E. coli” value is on record?
Answer: not soluble

Question: Which “soluble on expression in E. coli” value does the source give for “GPGSMSSIEELKVVRLFRALNTMIQLCHDRGYVIRHPSAIAEAVQNPELYNNEEGLDHDWFLRHFVISPDRAARSIRAKQRGDGSSRSGPRREAKNEEDGGDADKPGEYDVAADEDEALRRAANGEWVCMRNAMRLTCSVDPRRATLASSVLTGAPTNKAPSSAPAVTAEPKDDDGDVPYAVAAAAVDAKSKEKAAKNALMVFFSGSPKLSMKEVHSFREKALKKKASSMIVVTNKIDPGVRMDVQELSGRMDEATGAELLSIQVFEEEALAFNVVRHETVPRHVALTPAEAEAFLAERKLNVAQLPRMQESDPLVQYLGLQRGSIVHITREGKQSGPYSMYRHVI” here?
Answer: soluble

Question: Which “soluble on expression in E. coli” value does the source give for “MSTGVKANDVKTKTKGADLVVDCLIKQGVTHVFGIPGAKIDSVFDVLQERGPELIVCRHEQNAAFMAAAIGRLTGKPGVCLVTSGPGTSNLATGLVTANAESDPVVALAGAVPRTDRLKRTHQSMDNAALFEPITKYSVEVEHPDNVPEALSNAFRSATSTNPGATLVSLPQDVMTAETTVESIGALSKPQLGIAPTHDITYVVEKIKAAKLPVILLGMRASTNEVTKAVRALIADTELPVVETYQAAGAISRELEDHFFGRVGLFRNQPGDILLEEADLVISIGYDPIEYDPKFWNKLGDRTIIHLDDHQADIDHDYQPERELIGDIALTVNSIAERLPKLVLSTKSEAVLERLRAKLSEQAEVPNRDSEGVTHPLQVIRTLRSLISDDTTVTCDIGSHSIWMARCFRSYEPRRLLFSNGMQTLGVALPWAIAATLVEPGKKVVSVSGDGGFLFSAMELETAVRLNSPIVHLVWRDGTYDMVAFQQMMKYGRTSATEFGDVDLVKYAESFGATGLRVNTPDELEGVLKSALAADGPVIIDIPIDYRDNIKLSEKLLPNQLN” here?
Answer: not soluble

Question: With “MSSSHLAERHAFSDLSLLSEALAQSVTVTLRNAIERYGKASLVVPGGHTPVVYLPRLAQMDLPWQQVFITLSDERWVEPTSEQSNERLVREHFLQHMQQQPHFIALKTGHIHPDQAITDIDARLAELPQPFSLVILGLGEDGHIASLFPGMALNPDTTSLCQTATPPAAPSLRISLSLHALINSDRIILVITGKEKRQLIDRLIESPDQNIPFVRLMQFKPVELFETD” as the sequence, how does the “soluble on expression in E. coli” value read?
Answer: not soluble
